Measured values taken from patent US20240109955A1.
Positions count from the first letter of the chain named.

B1: MX1070 (protein)
chain 1: QTVVTQEPSFSVSPGGTVTLTCGLSSGSVSTAYFPSWYQQTPGQAPRTLIYGTNTRSSGVPDRFSGSILGNKAALTITGAQADDESDYYCVLYMGRGIVVFGGGTKLTVLGGSSGEIVLTQSPGTLSLSPGETATLSCRASQSFSSDLAWYQQKPGQAPRLLIYGASSRATGIPDRFSGSGSGTDFTLTISRLEPADFAVYYCQQYGSSPPVTFGGGTKVEIKGGGGSGGSGSGGGGSASGSGEVQLVESGGGLIQPGGSLRLSCAASGVIVSYNYMNWVRQAPGKGLEWVSVIYSGGSTFYADSVRGRFTISRDNSKNTLYLQMNSLRAEDTAVYYCARDLGPAGAFDIWGLGTMVTVSSGGSSGQVQLVESGGGVVQPGRSLRLSCAASGFTLSSYGMHWVRQAPGKGLEWVAVISYDGSNKYYVDSVKGRFTISRDNSKNTLYLQMNSLRAEDTAVYYCRWAYWELLPDYYYGMDVWGQGTTVTVSSASGGSGDKTHTCPPCPAPELLGGPSVFLFPPKPKDTLMISRTPEVTCVVVDVSHEDPEVKFNWYVDGVEVHNAKTKPREEQYNSYVVSVLTVLHQDWLNGKEYKCKVSNKALPAPIEKTISKAKGQPREPQVYTLPPCRDELTKNQVSLWCLVKGFYPSDIAVEWESNGQPENNYKTTPPVLDSDGSFFKKLTVDKSRWQQGNVFSCSVLHEALHSHYTQKSLSLSPG
chain 2: DTVMTQSPLSLPVTPGEPASISCRSSQSLLNSNGYNYLDWYVQKPGQSPQLLIYLGSNRASGVPDRFSGSGSGTDFTLKISRVEAEDVGVYYCMQPLQTPLFTFGPGTKVEIKGGSSGEIVLTQSPGTLSLSPGETATLSCRASQSFSSDLAWYQQKPGQAPRLLIYGASSRATGIPDRFSGSGSGTDFTLTISRLEPADFAVYYCQQYGSSPPVTFGGGTKVEIKGGGGSGGSGSGGGGSASGSGEVQLVESGGGLIQPGGSLRLSCAASGVIVSYNYMNWVRQAPGKGLEWVSVIYSGGSTFYADSVRGRFTISRDNSKNTLYLQMNSLRAEDTAVYYCARDLGPAGAFDIWGLGTMVTVSSGGSSGQVTLRESGPALVKPTQTLTLTCTFSGFSLSTRGVCVSWIRQPPGKALEWLAFIDWDDDKYYNTSLKTRLTISKDTSKNQVVLTMTNVHPVDTATYYCARISSHHGSSWCTTFDYWGQGALVTVSAASGGSGDKTHTCPPCPAPELLGGPSVFLFPPKPKDTLMISRTPEVTCVVVDVSHEDPEVKFNWYVDGVEVHNAKTKPREEQYNSYVVSVLTVLHQDWLNGKEYKCKVSNKALPAPIEKTISKAKGQPREPQVCTLPPSRDELTKNQVSLSCAVKGFYPSDIAVEWESNGQPENNYKTTPPVLDSDGSFFLVSKLTVDKSRWQQGNVFSCSVLHEALHSHYTQKSLSLSPG
B2: MX1041 (bispecific antibody)
chain: B1 chain 1 with C628S, W640T
B3: MX1073 (protein)
chain 1: B1 chain 1
chain 2: QTVVTQEPSFSVSPGGTVTLTCGLSSGSVSTAYFPSWYQQTPGQAPRTLIYGTNTRSSGVPDRFSGSILGNKAALTITGAQADDESDYYCVLYMGRGIVVFGGGTKLTVLGGSSGDTVMTQSPLSLPVTPGEPASISCRSSQSLLNSNGYNYLDWYVQKPGQSPQLLIYLGSNRASGVPDRFSGSGSGTDFTLKISRVEAEDVGVYYCMQPLQTPLFTFGPGTKVEIKGGGGSGGSGSGGGGSASGSGQVTLRESGPALVKPTQTLTLTCTFSGFSLSTRGVCVSWIRQPPGKALEWLAFIDWDDDKYYNTSLKTRLTISKDTSKNQVVLTMTNVHPVDTATYYCARISSHHGSSWCTTFDYWGQGALVTVSAGGSSGQVQLVESGGGVVQPGRSLRLSCAASGFTLSSYGMHWVRQAPGKGLEWVAVISYDGSNKYYVDSVKGRFTISRDNSKNTLYLQMNSLRAEDTAVYYCRWAYWELLPDYYYGMDVWGQGTTVTVSSASGGSGDKTHTCPPCPAPELLGGPSVFLFPPKPKDTLMISRTPEVTCVVVDVSHEDPEVKFNWYVDGVEVHNAKTKPREEQYNSYVVSVLTVLHQDWLNGKEYKCKVSNKALPAPIEKTISKAKGQPREPQVCTLPPSRDELTKNQVSLSCAVKGFYPSDIAVEWESNGQPENNYKTTPPVLDSDGSFFLVSKLTVDKSRWQQGNVFSCSVLHEALHSHYTQKSLSLSPG
B4: MX1028 (bispecific antibody)
chain 1: EIVMTQSPAILSVSPGERATLSCRASQSVAINLAWYQQKPGQAPRLLIYAASSRATGIPGRFSGSGSETNFTLTISSLQSGDFAVYYCQQYITWPPSYTFGQGTKLEIKGGSSGDTVMTQSPLSLPVTPGEPASISCRSSQSLLNSNGYNYLDWYVQKPGQSPQLLIYLGSNRASGVPDRFSGSGSGTDFTLKISRVEAEDVGVYYCMQPLQTPLFTFGPGTKVEIKGGGGSGGSGSGGGGSASGSGQVTLRESGPALVKPTQTLTLTCTFSGFSLSTRGVCVSWIRQPPGKALEWLAFIDWDDDKYYNTSLKTRLTISKDTSKNQVVLTMTNVHPVDTATYYCARISSHHGSSWCTTFDYWGQGALVTVSAGGSSGEVQLVESGGALIQPGGSLRLSCAASGIIVSANYMSWVRQAPGKGLEWVSVIYSGGSTFYADSVKGRFTISRDNSKNTLYLEMNSLRAEDTAVYYCARDAPILGVSDWGQGTLVTVSSASGGSGDKTHTCPPCPAPELLGGPSVFLFPPKPKDTLMISRTPEVTCVVVDVSHEDPEVKFNWYVDGVEVHNAKTKPREEQYNSYVVSVLTVLHQDWLNGKEYKCKVSNKALPAPIEKTISKAKGQPREPQVYTLPPCRDELTKNQVSLWCLVKGFYPSDIAVEWESNGQPENNYKTTPPVLDSDGSFFKKLTVDKSRWQQGNVFSCSVLHEALHSHYTQKSLSLSPG
chain 2: DTVMTQSPLSLPVTPGEPASISCRSSQSLLNSNGYNYLDWYVQKPGQSPQLLIYLGSNRASGVPDRFSGSGSGTDFTLKISRVEAEDVGVYYCMQPLQTPLFTFGPGTKVEIKGGSSGEIVMTQSPAILSVSPGERATLSCRASQSVAINLAWYQQKPGQAPRLLIYAASSRATGIPGRFSGSGSETNFTLTISSLQSGDFAVYYCQQYITWPPSYTFGQGTKLEIKGGGGSGGSGSGGGGSASGSGEVQLVESGGALIQPGGSLRLSCAASGIIVSANYMSWVRQAPGKGLEWVSVIYSGGSTFYADSVKGRFTISRDNSKNTLYLEMNSLRAEDTAVYYCARDAPILGVSDWGQGTLVTVSSGGSSGQVTLRESGPALVKPTQTLTLTCTFSGFSLSTRGVCVSWIRQPPGKALEWLAFIDWDDDKYYNTSLKTRLTISKDTSKNQVVLTMTNVHPVDTATYYCARISSHHGSSWCTTFDYWGQGALVTVSAASGGSGDKTHTCPPCPAPELLGGPSVFLFPPKPKDTLMISRTPEVTCVVVDVSHEDPEVKFNWYVDGVEVHNAKTKPREEQYNSYVVSVLTVLHQDWLNGKEYKCKVSNKALPAPIEKTISKAKGQPREPQVCTLPPSRDELTKNQVSLSCAVKGFYPSDIAVEWESNGQPENNYKTTPPVLDSDGSFFLVSKLTVDKSRWQQGNVFSCSVLHEALHSHYTQKSLSLSPG
B5: E8 + B8 (protein)
VH 1: QVTLRESGPALVKPTQTLTLTCTFSGFSLSTRGVCVSWIRQPPGKALEWLAFIDWDDDKYYNTSLKTRLTISKDTSKNQVVLTMTNVHPVDTATYYCARISSHHGSSWCTTFDYWGQGALVTVSA
VL 1: DTVMTQSPLSLPVTPGEPASISCRSSQSLLNSNGYNYLDWYVQKPGQSPQLLIYLGSNRASGVPDRFSGSGSGTDFTLKISRVEAEDVGVYYCMQPLQTPLFTFGPGTKVEIK
VH 2: EVQLVESGGALIQPGGSLRLSCAASGIIVSANYMSWVRQAPGKGLEWVSVIYSGGSTFYADSVKGRFTISRDNSKNTLYLEMNSLRAEDTAVYYCARDAPILGVSDWGQGTLVTVSS
VL 2: EIVMTQSPAILSVSPGERATLSCRASQSVAINLAWYQQKPGQAPRLLIYAASSRATGIPGRFSGSGSETNFTLTISSLQSGDFAVYYCQQYITWPPSYTFGQGTKLEIK

Tests used:
Assay in all cases: cell-based or functional assay
[1] = molecular target: SARS-CoV-2 spike protein, Omicron variant BA.2.75.2 (SARS-CoV-2)
[2] = molecular target: SARS-CoV-2 spike protein, Omicron variant BQ.1.1 (SARS-CoV-2)
[3] = molecular target: SARS-CoV-2 spike protein, Omicron variant XBB (SARS-CoV-2)
[4] = molecular target: SARS-CoV-2 spike protein, Omicron variant BA.4/5 (SARS-CoV-2)
[5] = molecular target: SARS-CoV-2 spike protein, Omicron variant BQ.1 (SARS-CoV-2)
[6] = molecular target: SARS-CoV-2 Delta variant spike protein (SARS-CoV-2)
[7] = molecular target: SARS-CoV-2 Omicron variant B.1.1.529 spike protein (SARS-CoV-2)
[8] = molecular target: SARS-CoV-2 Omicron variant BA.4/5 spike protein (SARS-CoV-2)
[9] = molecular target: SARS-CoV-2 Omicron variant BA.2.75.2 spike protein (SARS-CoV-2)
[10] = molecular target: SARS-CoV-2 Omicron variant XBB spike protein (SARS-CoV-2)
[11] = molecular target: SARS-CoV-2 Omicron variant BQ.1.1 spike protein (SARS-CoV-2)
[12] = molecular target: SARS-CoV-2 Omicron variant BQ.1 spike protein (SARS-CoV-2)

Binder	IC50, pseudovirus neutralization [1] [ng/mL]	IC80, pseudovirus neutralization [1] [ng/mL]	IC50, pseudovirus neutralization [2] [ng/mL]	IC80, pseudovirus neutralization [2] [ng/mL]	IC50, pseudovirus neutralization [3] [ng/mL]	IC80, pseudovirus neutralization [3] [ng/mL]	IC50, pseudovirus neutralization [4] [ng/mL]	IC80, pseudovirus neutralization [4] [ng/mL]	IC50, pseudovirus neutralization [5] [ng/mL]	IC80, pseudovirus neutralization [5] [ng/mL]	IC50, pseudovirus neutralization [10] [ng/mL]	IC80, pseudovirus neutralization [10] [ng/mL]	IC50, pseudovirus neutralization [11] [ng/mL]	IC80, pseudovirus neutralization [11] [ng/mL]	IC50, pseudovirus neutralization [12] [ng/mL]	IC80, pseudovirus neutralization [12] [ng/mL]	further results
B1	2.4	4.16	4.06	11	2.9	9.71	2.49	3.58	4.64	9.16	–	–	–	–	–	–	–
B2	–	–	–	–	–	–	–	–	–	–	–	–	–	–	–	–	IC50, pseudovirus neutralization [6]: 29.1 ng/mL; IC80, pseudovirus neutralization [6]: 48.5 ng/mL; IC50, pseudovirus neutralization [7]: 4.14 ng/mL; IC80, pseudovirus neutralization [7]: 8.81 ng/mL
B3	1.81	3.35	5.77	24.1	9.3	24	2.78	4.28	1.9	10.8	–	–	–	–	–	–	–
B4	–	–	–	–	–	–	–	–	–	–	6.77	16.1	4.2	14.4	10.5	25.5	IC50, pseudovirus neutralization [8]: 1.81 ng/mL; IC80, pseudovirus neutralization [8]: 3.73 ng/mL; IC50, pseudovirus neutralization [9]: 2.43 ng/mL; IC80, pseudovirus neutralization [9]: 7.4 ng/mL
B5	–	–	–	–	–	–	–	–	–	–	9.96	18.1	9.55	13.2	11	30.5	–
